Data reported in the supplement of paper PMC9170038.

How the values were obtained:
MS2 coat protein [1] = test: apparent KD of MS2 coat protein; designed switch direction (-1 OFF switch, 1 ON switch): -1; higher = weaker reporter binding; details: Eterna round: R98
Protocol: (§1)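 RNA-MaP: designed FMN/MS2 RNA switches (84 nt design region) are transcribed on-chip within common flanks and titrated with SNAP-549-labelled MS2 coat protein (about 1-3000 nM) in 100 mM Tris pH 7.5, 80 mM KCl, 4 mM MgCl2, without or with 200 uM FMN. Median apparent KD per design; activation ratio = KD,OFF / KD,ON.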

MS2 coat protein [2] = test: apparent KD of MS2 coat protein; designed switch direction (-1 OFF switch, 1 ON switch): 1; higher = weaker reporter binding; details: Eterna round: R98
Protocol: as §1

Sequence	apparent KD of MS2 coat protein (MS2 coat protein [1]; input ligand: FMN 200 uM) [µM]	apparent KD of MS2 coat protein (MS2 coat protein [1]; input ligand: none) [µM]	apparent KD of MS2 coat protein (MS2 coat protein [2]; input ligand: FMN 200 uM) [µM]	apparent KD of MS2 coat protein (MS2 coat protein [2]; input ligand: none) [µM]
AGCUGUGGCCGAGGAUAUCUAUCUUCAAUAACCGAAAUAUAAUCGGACAUGAGGAUCACCCAUGUAGAGAAGGCGGUCUCAGCA [Eli xng2 2.033]	0.1	0.0377		
CCGGAAACGGGUAGCUGACAUGAGGAUCACCCAUGUGAAUCUGAGGAUAUGGAUGGUAAUUCCAUCCAGAAGGCAGUCAGCUAC [Mat - Same State NG 3 - JL Mod - D82]			0.0591	0.551
GCCAUCGCAUGAGGAUAUGGACAGCUUUGCUGUCCAGAAGGCAUGUCAUAAGACAUGAGGAUCACCCAUGUAGUUAAGAUGGCA [Mat - Same State NG 1 - JL Mod - D15]			0.0741	1.07
UUCUGUGCCCAAAGUUUAAGCACAUGAGGAUCACCCAUGUGAAAGGAUAUGUGGCGUGUAACGUUAUAGAAGGUUCACAAUAAA [Edorcetila]	0.0749	0.0331		
CCCUUCAGAAGAGGGACAUGAGGAUCACCCAUGUAGGCUGCACAGGAUAUCGAUCGGAGGCGGUACGAGAAGGGUGACGUCAUU [Soedgege]			0.168	0.0793
UCAUACAUGAGGAUCUCCCAUGACAUGAGGAUCACCCAUGUGCAGGAUAUACGUGAUAUAAUAUAGUAGAAGGGCAGACUAUAU [LRO008_Exclusion NG 3]	0.192	0.157		
CCUACCAACACAGGAUAUGCUAUCCUUUGGGUAGCAGAAGGGUGAAACAUGAGGAUCACCCAUGUGGUGGGACCCGGUGACGGG [Mat - Same State NG 1 - Eli mod - D70]			0.116	1.01
AACAGCGUAGAUAAUAAUGAUUACAUGAGGAUCACCCAUGUAUAGGAUAUGCAGUGGAAUACACUGCAGAAGGAUACAUCGCUG [Exclusion NG 3/18-B1]	0.033	0.0175		
CAUAGGUGUACAUGAGGAUCACCCAUGUCCCUGGUCAUUGGACAGGAUAUAUGGGCGGUCGCUUCAUAGAAGGGUUAAAUGGGA [Orenatis]			0.224	0.0666
GCACUGGAUGUAGGAUAUCAGGACGAUAAGUCCUGAGAAGGACAUGAGGAUCACCCAUGUGAAUAAAACCAGUGCAAUAAUAUA [Denovo Exng1 22]	0.0309	0.0134		
CAUGAAGGGUGAGGAUAUGCACAGGAUCACCGUGUAGAAGGCAUCAGGUAGAAGGUGCAGAGGAUCACCCUGUAAGGAUAUAUC [pwkr2 ssNG1 DX.16]			0.482	1.31
GGUCCAAUAUGAGGAUAUAGCACCUUAUUGGUGCUAGAAGGCGUGUCGGUAGACAUGAGGAUCACCCAUGUAUUACAAUGGACC [SameState #28 NG1]			0.0256	0.0886
GUAGCAUACCGAGGAUAUUCAUAUAAUAAAUAAACAUGAGGAUCACCCAUGUGGCGAAAGCCUAGGGAGAAGGCGGAAUGCUAA [salish99_SSNG2_r2_113]			0.0236	0.201
CUAGCAUACCGAGGAUAUUCAUAUAAUAAAUAAACAUGAGGAUCACCCAUGUGGCGAAAGCCUAGGGAGAAGGCGGAAUGCUAG [salish99_SSNG2_r2_004]			0.0201	0.212
GCACUCAAGUUAGGAUAUGGAUCGGAAACCGAUCCAGAAGGAACACAAUAACAUGAGCAUCAGCCGUGUUCCAGAAACGAGUGC [SameSame 15 - Jieux - Same State NG 1]			0.126	
UCACUCACGUCAGGAUAUGGAUCGGAAAACGAUCCAGAAGGGACCUGCAAACCUGAGGAUCACCCUGGUUCCAAUAACGAGUGA [SameSame 10 - Jieux - Same State NG 1]			0.133	0.222
UUGACGUCGGAUACAUGAGGAUCACCCAUGUGCCCGCGGGCACAGGAUAUCGAACAUAGUAUUGACGAGAAGGGUGACAGAGAG [Anxeenerce]			0.664	0.404
UAUAUAAUAAGAGCUGGAACUCAAACAUGAGGAUCACCCAUGUAGGAUAUCAGCACGAUAAGUGCUGAGAAGGACAACCAGCUC [Denovo 75]	0.0212	0.0176		
CCGUGACACGAAGGAUAUGUGGGUGGUAGUCUGUGCUCCGCCUACAUGAGGAUCACCCAUGUAUCACAGAAGGUCGGACGUCAA [Zaaerzaza]			0.0712	0.0513
CACUCAAGGUGAGGAUAUGCACAGGAUCACCGUGUAGAAGGCAUCAGGUAGAAGGUGCAGAGGAUCACCCUGUAAGGAUAUAUC [pwkr2 ssNG1 DX.11]			0.334	0.867
CCGGAAACGGGUAGCUGUACAUGAGGAUCACCCAUGUGAUCAUAGGAUAUGGUUCCUAAUUGGAACCAGAAGGAUGUCAGCUAC [Mat - Same State NG 3 - JL Mod - D86]			0.434	0.0326

Sequence	apparent KD of MS2 coat protein (MS2 coat protein [1]; input ligand: FMN 200 uM) [µM]	apparent KD of MS2 coat protein (MS2 coat protein [1]; input ligand: none) [µM]	apparent KD of MS2 coat protein (MS2 coat protein [2]; input ligand: FMN 200 uM) [µM]	apparent KD of MS2 coat protein (MS2 coat protein [2]; input ligand: none) [µM]
AUUAAUGGGUGAGGAUAUGCACAGGAUCACCGUGUAGAAGGCAUCAGGUAGAAGGUGCAGAGGAUCACCCUGUAAGGAUAUAUC [pwkr2 ssNG1 DX.13]			0.858	0.998
GCAGAAGGUGCGGAGGAUCACCCUGUAAGGAUAUGCAUUAGCAAGGAUAUACAGAGGAUCACCCUGUAGAAGGUGCACUACAAA [pwkr2 ssNG3 DX.5]			0.525	1.89
UGGACCAAUACAGGAUAUGGUGACGCACAUGAGGAUCACCCAUGUCCGCAGCGUGCUCAGCACGCCCAGAAGGGUAUUGAUUCA [Tereriesti]			0.0745	0.671
CAAUUAUGGUGAGGAUAUGCACAGGAUCACCGUGUAGAAGGCAUCAGGUAGAAGGUGCAGAGGAUCACCCUGUAAGGAUAUAUC [pwkr2 ssNG1 DX.17]			0.109	0.666
UGACGGCACACAGGAUAUAGUGCACAAAGUGUACUAGAAGGGUGAGCACUCGUCCGGGCACAUGAGGAUCACCCAUGUCGUCGA [Onusar]			1.04	0.133
GCCAUCGCAUGAGGAUAUGGCACCGUUUCGGUGCCAGAAGGCAUGUCUCUAGACAUGAGGAUCACCCAUGUAGUUAAGAUGGCA [Pyrimidine booster 2]			0.0504	0.589
GUAGCAUACCGAGGAUAUUCAUAUAAUAAAUAAACAUGAGGAUCACCCAUGUGGCGAAAGCCUAGGGAGAAGGCGGAAUGCUAU [salish99_SSNG2_r2_110]			0.0242	0.171
GGACAUCCCACAGGAUAUGCUGGACUUUGUCCAGCAGAAGGGUGACAUGAGGAUCACCCAUGUAAUAGGAUGUCCAUAUUUAAU [Denovo 38]			0.0793	0.536
UUUACAUGAGGAUCACCCAUGUAUGUCACCCAUGUGUGUAAUCAGGAUAUGAAAUAAAUAAUAAAUUAGAAGGGAUAACAUGAG [Attempt 1]			0.0729	0.0603
GUAGCAUACCGAGGAUAUUCAUAUAAUAAAUAAACAUGAGGAUCACCCAUGUGGCGAAAGCCUAGGGAGAAGGCGGAAUGCUAG [salish99_SSNG2_r2_003]			0.0221	0.248
UUUACAUGAGGAUCACCCAUGUUUAGAAAGUUAAUUAUAAGUGAGGAUAUAUAAUUUAUAAAAUAGUAGAAGGCACUGGGUAUU [JR_SSNG3_Sub079]			0.0272	0.032
CCAGAGAUAUGAGGAUAUCGAGUGGAUAACACUCGAGAAGGCAUGUGAAAACAUGAGGAUCACCCAUGUGAUCAAUACUCUGGA [Same State NG1 - WT Aptamer 2D]			0.0274	0.17
GUCGAAUUCUUAGGAUAUCGAGUGGAUAACACUCGAGAAGGAAGAUAUACCUGAGGAUCACCCAGGUUAAACUGAACGACAAUA [Same State NG1 - A3C, U17G Submission 7D]			0.0175	0.0185
CUAAUUUAUUGAGGAUAUGCACAGGAUCACCGUGUAGAAGGCAUCAGGGAGAAGGUGCAGAGGAUCACCCUGUAAGGAUAUCAA [pwkr2 ssNG1 DX.3]			0.105	0.231
UGCACAUGAGGAUCACCCAUGUAUUGUUCGGUUUAUAGUAGUGAGGAUAUGCAAAGUAUAAGGAAGCAGAAGGCACAGGAUUCA [JR_SSNG3_Sub045]			0.0195	0.0263
CCGGUGUAUGCAGGAUAUGAGAGGAGGUGACCAUCAGAAGGGCAAGCCCACAUGAGGAUCACCCAUGUACUAAGAGACAAGGCC [Tienlaonso]			0.0507	0.0255
GCCACAUGAGGAUCACCCAUGUACGGUUCCGUCUCAUUAGUGCAGGAUAUGUUCACCGGAAGUGUGCAGAAGGGUAAAAGUGGG [Onar]			0.209	0.0882
GGCGAUCAGGCUAACAUGAGGAUCACCCAUGUGGACUCAUGGUAGGAUAUGCUGUACAAAGUACAGCAGAAGGGCCGGAGAGCC [Mat - Same State NG 3 - JL Mod - D2]			0.144	0.152
AUAGCAUACCGAGGAUAUUCAUAUAAUAAAUAAACAUGAGGAUCACCCAUGUGGCGAAAGCCUAGGGAGAAGGCGGAAUGCUAG [salish99_SSNG2_r2_101]			0.0299	0.237
GUAGCAUACCGAGGAUAUUCAGAGAAUAAAUAAACAUGAGGAUCACCCAUGUGGCGAAAGCCUAGGGAGAAGGCGGAAUGCUAC [salish99_SSNG2_r2_208]			0.0253	0.0819
